# From patent US6933368
# B1: humanized M195 antibody (antibody, INN chains, looked up, human IgG1, V domains shown)
# VH: QVQLVQSGAEVKKPGSSVKVSCKASGYTFTDYNMHWVRQAPGQGLEWIGYIYPYNGGTGYNQKFKSKATITADESTNTAYMELSSLRSEDTAVYYCARGRPAMDYWGQGTLVTVSS
# VL: DIQMTQSPSSLSASVGDRVTITCRASESVDNYGISFMNWFQQKPGKAPKLLIYAASNQGSGVPSRFSGSGSGTDFTLTISSLQPDDFATYYCQQSKEVPWTFGQGTKVEIK
# Biological target: CD33 antigen (UniProt P20138)
# Experiment: competitive binding against 125I-murine M195 on HL60 cells
# Chain of UniProt P20138 (P20138 18-364 limits assumed): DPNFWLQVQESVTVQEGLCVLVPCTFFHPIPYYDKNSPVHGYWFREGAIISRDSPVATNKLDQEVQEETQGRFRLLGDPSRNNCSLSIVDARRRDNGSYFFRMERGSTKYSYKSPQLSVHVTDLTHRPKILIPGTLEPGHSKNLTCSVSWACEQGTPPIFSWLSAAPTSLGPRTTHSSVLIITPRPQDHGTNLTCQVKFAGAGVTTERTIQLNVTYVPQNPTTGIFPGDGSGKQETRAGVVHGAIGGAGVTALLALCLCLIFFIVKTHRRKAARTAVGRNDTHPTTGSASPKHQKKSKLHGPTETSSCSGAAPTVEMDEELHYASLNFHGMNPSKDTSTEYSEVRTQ
molecule,measurement,value
aglycosylated chimeric M195 antibody,fold increase in binding affinity against the chimeric antibody,8 fold
murine M195 antibody,Ka,2e+09 M⁻¹
B1,fold increase in binding affinity against the chimeric (or murine) antibody,8 fold
